Measured values taken from article PMC6412877, “Novel Site-Specific Fatty Chain-Modified GLP-1 Receptor Agonist with Potent Antidiabetic Effects” (Molecules, 2019).

Columns and labels:
Mouse GLP-1R (mouse) = Mouse GLP-1R (mouse) (UniProt O35659)
Human GLP-1R (human) = Human GLP-1R (human) (UniProt P43220)
Human GLP-1R (human), sequence (P43220 24-463): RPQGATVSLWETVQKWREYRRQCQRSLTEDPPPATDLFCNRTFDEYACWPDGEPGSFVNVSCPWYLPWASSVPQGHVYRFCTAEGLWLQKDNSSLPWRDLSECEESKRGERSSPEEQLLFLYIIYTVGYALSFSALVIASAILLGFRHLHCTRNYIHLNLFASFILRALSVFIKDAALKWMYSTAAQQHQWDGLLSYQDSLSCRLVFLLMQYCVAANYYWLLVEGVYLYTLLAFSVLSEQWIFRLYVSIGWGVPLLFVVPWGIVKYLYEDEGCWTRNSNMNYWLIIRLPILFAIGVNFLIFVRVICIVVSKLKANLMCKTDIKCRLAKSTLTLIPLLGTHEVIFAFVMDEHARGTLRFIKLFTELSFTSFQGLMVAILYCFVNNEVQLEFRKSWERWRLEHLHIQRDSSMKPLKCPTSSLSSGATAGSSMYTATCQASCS

Mouse GLP-1R (mouse), sequence (O35659 22-463): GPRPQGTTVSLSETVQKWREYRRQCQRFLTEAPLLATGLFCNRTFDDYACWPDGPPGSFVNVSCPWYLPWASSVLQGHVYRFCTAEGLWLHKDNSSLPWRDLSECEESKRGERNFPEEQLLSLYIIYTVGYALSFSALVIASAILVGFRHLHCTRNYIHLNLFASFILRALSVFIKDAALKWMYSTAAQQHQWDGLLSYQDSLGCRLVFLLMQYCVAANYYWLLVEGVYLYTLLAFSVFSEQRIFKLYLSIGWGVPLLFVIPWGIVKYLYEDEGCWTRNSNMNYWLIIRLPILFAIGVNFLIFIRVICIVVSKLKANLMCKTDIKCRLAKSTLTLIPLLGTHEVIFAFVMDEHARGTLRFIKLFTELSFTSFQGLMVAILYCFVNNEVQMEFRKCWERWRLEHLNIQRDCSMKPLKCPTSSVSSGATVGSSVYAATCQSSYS

Row | Substance | Emax (%), Mouse GLP-1R activation, in vitro cell assay (Mouse GLP-1R (mouse)) | EC50 (nM), Human GLP-1R activation, in vitro cell assay (Human GLP-1R (human)) | EC50 (nM), Mouse GLP-1R activation, in vitro cell assay (Mouse GLP-1R (mouse))
1 | Exendin-4 (from UniProt P26349 48-87) (peptide) | 100% | 0.052 nM | –
2 | Liraglutide (peptide) | 89% | – | 0.185 nM
